Assay results taken from patent US20160185837A1 (Medimmune Limited, priority 2013, published 2016).

Legend:
rat GIP receptor (rGIPr) = biological target: T1, rat GIP receptor (rGIPr) (Rattus norvegicus, UniProt P43219); test: BSA-cAMP assay, cells expressing rat GIP receptor; format: cell-based; conditions: BSA-cAMP assay; read-out: cAMP activity rGIPr (EC50)
T1 construct: expressed in transfected cells; host or cells: HEK293s or CHO cells
T1 sequence (P43219 19-455): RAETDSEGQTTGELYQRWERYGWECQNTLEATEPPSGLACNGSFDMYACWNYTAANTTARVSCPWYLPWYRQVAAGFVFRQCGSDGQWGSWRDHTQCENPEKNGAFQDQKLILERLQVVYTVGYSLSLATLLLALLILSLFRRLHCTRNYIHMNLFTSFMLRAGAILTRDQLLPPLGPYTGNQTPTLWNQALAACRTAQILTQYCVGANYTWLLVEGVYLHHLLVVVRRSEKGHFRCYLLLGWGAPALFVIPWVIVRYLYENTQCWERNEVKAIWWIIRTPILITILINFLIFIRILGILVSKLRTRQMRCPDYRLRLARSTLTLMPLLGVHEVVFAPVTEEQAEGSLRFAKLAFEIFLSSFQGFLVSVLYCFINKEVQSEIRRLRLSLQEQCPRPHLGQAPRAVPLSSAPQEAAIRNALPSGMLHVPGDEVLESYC
Method in brief: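 EC50 is the midpoint of an unconstrained 4-parameter logistic fit to HTRF cAMP data, expressed as percent of maximal native agonist response, from two separate occasions. Rodent (mouse, rat) GLP-1R- or GIPR-expressing cells were incubated with compound 30 min at room temperature in 0.1% BSA medium, in duplicate.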

hGIPr (C3) = biological target: T2, hGIPr (C3) (Homo sapiens, UniProt P48546); test: BSA-cAMP assay, second human GIPr cell line hGIPr (C3); format: cell-based; conditions: second human GIPr cell line, STDEV or N in the line below, read-out: cAMP activity hGIPr (C3) (EC50)
T2 construct: expressed in transfected cells
T2 sequence (P48546 22-466): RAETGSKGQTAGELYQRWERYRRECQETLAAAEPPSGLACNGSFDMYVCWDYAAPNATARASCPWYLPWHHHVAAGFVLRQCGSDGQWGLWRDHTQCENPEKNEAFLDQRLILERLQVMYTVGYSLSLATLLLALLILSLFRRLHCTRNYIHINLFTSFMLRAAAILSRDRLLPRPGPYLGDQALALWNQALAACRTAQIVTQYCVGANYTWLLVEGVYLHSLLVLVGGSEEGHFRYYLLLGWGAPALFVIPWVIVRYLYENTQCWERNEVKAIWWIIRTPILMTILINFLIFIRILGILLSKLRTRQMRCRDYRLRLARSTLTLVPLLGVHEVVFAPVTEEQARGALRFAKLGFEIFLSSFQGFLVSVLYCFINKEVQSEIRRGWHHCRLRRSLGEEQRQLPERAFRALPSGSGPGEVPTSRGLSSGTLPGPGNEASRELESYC
Experimental: For human GIPr, two different lines were used, shown as “hGIPr” and “hGIPr (C3)” in Table 11. Peptide activation of these various receptors results in downstream production of cAMP second messenger that can be measured in a functional activity assay.
One basic cAMP assays was performed, differing in the medium used for the assay, the “BSA-cAMP assay”:
BSA-based assay medium: 0.1% bovine serum albumin (BSA) in
Hanks Balanced Salt Solution (GIBCO or Sigma), containing 0.5 mM IBMX (Sigma #17018);
In certain aspects, the assay can also be carried out in medium supplemented with serum albumin that corresponds to the receptor being tested, e.g., human serum albumin for testing cAMP activity at hGIPr or hGLP-1r, rat serum albumin for testing cAMP activity at rGIPr or rGLP-1r, and so on. […]
cAMP levels were measured using a commercially available cAMP dynamic 2 HTRF kit (Cisbio, Cat #62AM4PEJ), following the two step protocol as per manufacturer's recommendations. […] Plates were incubated at room temperature for one hour and then read on an Envision (Perkin Elmer) using excitation wavelength of 320 nm and emission wavelengths of 620 nm & 665 nm. Data was transformed to % Delta F as described in manufacturer's guidelines and then transformed to percent activation of maximal native agonist response and analysed by 4-parameter logistic fit to determine EC50 values. […]

EC50 (rat GIP receptor (rGIPr)): 0.0076 nM
EC50 (hGIPr (C3)): 0.8 nM
B1: IP018 (protein)
chain: YSEGTFISDYSIAMDKIHQQDFVNWLLAQKAAAGGSGSTASSGSGSATGGGGAATHTCPPCPAPEF
modifications: /note=“Description of Artificial Sequence Synthetic Peptide-linker-hinge polypeptide”
